Target: T1, GST-tagged wild-type NRDE2 (human, UniProt Q9H7Z3 1-1164)
T1 sequence: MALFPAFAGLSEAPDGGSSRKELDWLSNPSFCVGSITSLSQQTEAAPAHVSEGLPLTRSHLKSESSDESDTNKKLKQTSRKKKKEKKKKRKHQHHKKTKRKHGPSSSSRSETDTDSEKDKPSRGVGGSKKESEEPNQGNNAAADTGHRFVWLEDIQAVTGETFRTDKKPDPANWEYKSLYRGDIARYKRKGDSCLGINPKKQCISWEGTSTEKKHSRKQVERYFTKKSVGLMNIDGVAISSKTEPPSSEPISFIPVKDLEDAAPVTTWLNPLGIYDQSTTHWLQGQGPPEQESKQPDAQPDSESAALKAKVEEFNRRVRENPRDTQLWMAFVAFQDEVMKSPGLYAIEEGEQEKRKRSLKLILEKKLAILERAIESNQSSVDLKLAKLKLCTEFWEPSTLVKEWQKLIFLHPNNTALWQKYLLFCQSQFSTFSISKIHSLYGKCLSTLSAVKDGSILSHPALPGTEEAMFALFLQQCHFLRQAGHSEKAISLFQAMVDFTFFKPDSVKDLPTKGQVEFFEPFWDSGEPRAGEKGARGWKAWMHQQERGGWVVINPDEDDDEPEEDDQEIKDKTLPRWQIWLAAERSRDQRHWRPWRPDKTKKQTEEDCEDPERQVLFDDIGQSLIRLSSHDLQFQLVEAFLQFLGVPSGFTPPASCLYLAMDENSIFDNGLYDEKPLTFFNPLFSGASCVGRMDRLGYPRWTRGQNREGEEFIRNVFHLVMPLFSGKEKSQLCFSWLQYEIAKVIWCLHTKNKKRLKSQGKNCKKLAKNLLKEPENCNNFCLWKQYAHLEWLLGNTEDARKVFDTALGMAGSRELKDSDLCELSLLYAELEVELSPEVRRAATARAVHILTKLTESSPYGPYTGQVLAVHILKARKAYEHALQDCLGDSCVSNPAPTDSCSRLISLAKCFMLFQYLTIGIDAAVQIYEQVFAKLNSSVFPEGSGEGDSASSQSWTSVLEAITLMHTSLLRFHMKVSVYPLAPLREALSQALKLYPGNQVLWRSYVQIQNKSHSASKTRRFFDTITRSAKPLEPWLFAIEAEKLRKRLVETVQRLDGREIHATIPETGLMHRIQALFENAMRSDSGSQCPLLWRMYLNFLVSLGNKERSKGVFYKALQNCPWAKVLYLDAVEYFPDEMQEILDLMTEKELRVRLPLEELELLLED
Assay: pull-down

B1: His-tagged CK2A2 (natural protein)
chain: MPGPAAGSRARVYAEVNSLRSREYWDYEAHVPSWGNQDDYQLVRKLGRGKYSEVFEAINITNNERVVVKILKPVKKKKIKREVKILENLRGGTNIIKLIDTVKDPVSKTPALVFEYINNTDFKQLYQILTDFDIRFYMYELLKALDYCHSKGIMHRDVKPHNVMIDHQQKKLRLIDWGLAEFYHPAQEYNVRVASRYFKGPELLVDYQMYDYSLDMWSLGCMLASMIFRREPFFHGQDNYDQLVRIAKVLGTEELYGYLKKYHIDLDPHFNDILGQHSRKRWENFIHSENRHLVSPEALDLLDKLLRYDHQQRLTAKEAMEHPYFYPVVKEQSQPCADNAVLSSGLTAAR
Question: Does B1 bind?
Answer: Result: binds

B2: His-tagged CK2B (natural protein)
chain: not shown
Question: Does B2 bind?
Answer: Result: binds

— paper PMC11099347 (Cell Genomics, 2024)
